Results as given in patent US20230190883A1, “STABLE PEPTIDES HAVING RENALASE AGONIST ACTIVITY” (Bessor Pharma, LLC, priority 2020, published 2023).
Marks after values point to notes of the source that are not given here.

System: carrageenan-induced Paw edema
Assay: carrageenan-induced paw edema (CPE) model in mice
Type: in vivo, CD-1 mice
Settings: 3 mpk
Source text: This test is a rapid in vivo model for evaluation of anti-inflammatory efficacy of test articles. The CPE model in mice quantitativdy assesses inhibition of edema enduced by subplantarinjection of carrageenan. […] Carrageenan-induced inflammation invoves extravasation of polymorphonuclear leukocytes from circulation to the site of inflammation. The subsequent release of myeloperoxidase and other cytokines within the interstitial tissues results in plasma exudation into the site of inflammation. The increased paw volume is measured by water displacement. Anti-inflammatory drugs reduce the paw edema.
• 1. Receive (SOP 1910, SOP 1920) and quarantine (SOP 560) 125 CD-1 mice (Charles River Laboratories, male, 5-6 weeks old). • 2. Animals are ear tagged (SOP 810), weighed, and sorted into 9 groups with 10 animals/group and 5 groups of 7 animals/group based upon average body weight. • 3. Prepare 3% carrageenan solution: • 1) Preparation at least 2 weeks in advance of use. • 2) Weigh out 600 mg A-carrageenan into a glass beaker. • 3) Add 20 ml deionized water. • 4) Stir on mild heat until carrageenan fully dissolved. • 5) Cool solution to ambient temperature. • 6) Store at 4-8° C. • 4. Until the day of use the renalase peptides are stored at -20° C. as dry powder. • 5. DAY 0 • a. Prepare test material in sterile saline (vehicle). • b. On the day of dosing, renalase peptides are dissolved. • c. On day prior to administration check carrageenan solution for clarity (no visible evidence of contamination). • 1) Equilibrate carrageenan to ambient temperature. • d. Record mouse weights in laboratory notebook. • e. Measure and record paw initial paw volumes: • 1) Place beaker of water on balance and tare to zero. • 2) Place right hind limb in the beaker of water on the scale with the top of the hock centered in the meniscus of the water. Record read-out on the scale. • 3) The foot must be dried after each measurement as wet feet will change the readout. • 4) Re-tare the scale between measurements to account for decrease in water volume. • f. […]
The test was also conducted to compare the inhibition of inflammation by peptide 10 as compared to the corresponding peptide fragment without the alanine substitution at position 220 (peptide 81).

B1: Renalase: RNLS is a 37 kD secretory protein that is primarily made by kidney proximal renal tubules cells (protein, UniProt Q5VYX0 18-342, looked up)
Renalase: ALLRRQTSGPLYLAVWDKAEDSGGRMTTACSPHNPQCTADLGAQYITCTPHYAKKHQRFYDELLAYGVLRPLSSPIEGMVMKEGDCNFVAPQGISSIIKHYLKESGAEVYFRHRVTQINLRDDKWEVSKQTGSPEQFDLIVLTMPVPEILQLQGDITTLISECQRQQLEAVSYSSRYALGLFYEAGTKIDVPWAGQYITSNPCIRFVSIDNKKRNIESSEIGPSLVIHTTVPFGVTYLEHSIEDVQELVFQQLENILPGLPQPIATKCQKWRHSQVTNAAANCPGQMTLHHKPFLACGGDGFTQSNFDGCITSALCVLEALKNYI
2 hr after carrageenan
  percent change from control, paw edema, 2 hr after carrageenan: 60.1* percent
4 hr after carrageenan
  percent change from control, paw edema, 4 hr after carrageenan: 35.3* percent
6 hr after carrageenan
  percent change from control, paw edema, 6 hr after carrageenan: 4.5%
10 hr after carrageenan
  percent change from control, paw edema, 10 hr after carrageenan: 23.7%
